Consider 18 sequences from the DeepSol protein solubility set.

A short description of the data set: soluble on expression in E. coli; label from the status in PepcDB or PDB records.
In the case of “MRGSHHHHHHGSMQILLANPRGFCAGVDRAISIVENALAIYGAPIYVRHEVVHNRYVVDSLRERGAIFIEQISEVPDGAILIFSAHGVSQAVRNEAKSRDLTVFDATCPLVTKVHMEVARASRRGEESILIGHAGHPEVEGTMGQYSNPEGGMYLVESPDDVWKLTVKNEEKLSFMTQTTLSVDDTSDVIDALRKRFPKIVGPRKDDICYATTNRQEAVRALAEQAEVVLVVGSKNSSNSNRLAELAQRMGKRAFLIDDAKDIQEEWVKEVKCVGVTAGASAPDILVQNVVARLQQLGGGEAIPLEGREENIVFEVPKELRVDIREVD”, the “soluble on expression in E. coli” value was “soluble”.
Under “MEKVEHLNLNIQNILEDVDIDTASSSSDDEPEQAVVKQEKLEAGEQIEEQYDTDSDYDDDIVEFAEATGDFTKKLNAARLNTIGPNAARNRLTVDVERHADTSEDRKRKRVKDRADRATVEQVLDPRTRLVLFRLLQRGTLLNIDGCISTGKEANVYHATGTDNDLAIKIYKTSILTFKDRERYVTGEFRYRHGYCKSNPRKMVAVWAEKEMRNLARMHEVGLPVPKPHLLKGHVLVMDFLGKDGWPAPLLKNANLSQEDAEPMYVGLVRDMRRLYRECKLVHADLSEFNMLVHDGKLWIIDVSQSVEQDHPHALEFLRMDCNNVNKFFRELGVPVLSVRRLFEVIVDPLMSSKEMETIIEEERVLVNSEDDSLFMNAFIPHKLEHVLHFERDGKLAKEGVEANNPFQNIVSKIDLKGDGFGEEHDDSDDNDDEENGKKSRKKRAEPTEEEIQEKERKIAMHTRNREETAEERKERKAAVKEEKREQRKEKIPKHLKKRAHRQHMKYQSSPWSTLINCLHTLVP” stands “not soluble”; under “MFSIDDVAKQAQSLAGKGYETPKSNLPSVFRDMKYADYQQIQFNHDKAYWNNLKTPFKLEFYHQGMYFDTPVKINEVTATAVKRIKYSPDYFTFGDVQHDKDTVKDLGFAGFKVLYPINSKDKNDEIVSMLGASYFRVIGAGQVYGLSARGLAIDTALPSGEEFPRFKEFWIERPKPTDKRLTIYALLDSPRATGAYKFVVMPGRDTVVDVQSKIYLRDKVGKLGVAPLTSMFLFGPNQPSPANNYRPELHDSNGLSIHAGNGEWIWRPLNNPKHLAVSSFSMENPQGFGLLQRGRDFSRFEDLDDRYDLRPSAWVTPKGEWGKGSVELVEIPTNDETNDNIVAYWTPDQLPEPGKEMNFKYTITFSRDEDKLHAPDNAWVQQTRRSTGDVKQSNLIRQPDGTIAFVVDFTGAEMKKLPEDTPVTAQTSIGDNGEIVESTVRYNPVTKGWRLVMRVKVKDAKKTTEMRAALVNADQTLSETWSYQLPANEVEHHHHHH”, “soluble”; under “MSLVKYGVVGAGYFGAELARYMQKNDGAEITLLYDPDNAEAIAEELGAKVASSLDELVSSDEVDCVIVATPNNLHKEPVIKAAQHGKNVFCEKPIALSYQDCREMVDACKENNVTFMAGHIMNFFNGVHHAKELINQGVIGDVLYCHTARNGWEEQQPSVSWKKIREKSGGHLYHHIHELDCVQFLMGGMPETVTMTGGNVAHEGEHFGDEDDMIFVNMEFSNKRFALLEWGSAYRWGEHYVLIQGSKGAIRLDLFNCKGTLKLDGQESYFLIHESQEEDDDRTRIYHSTEMDGAIAYGKPGKRTPLWLSSVIDKEMRYLHEIMQGAPVSEEFAKLLTGEAALEAIATADACTQSMFEDRKVKLSEIVKEGHHHHHH”, “soluble”.
In the case of “MGSDKIHHHHHHMDVIKQIQQAIVYIEDRLLEPFNLQELSDYVGLSPYHLDQSFKMIVGLSPEAYARARKMTLAANDVINGATRLVDIAKKYHYANSNDFANDFSDFHGVSPIQASTKKDELQIQERLYIKLSTTERAPYPYRLEETDDISLVGYARFIDTKYLSHPFNVPDFLEDLLIDGKIKELRRYNDVSPFELFVISCPLENGLEIFVGVPSERYPAHLESRFLPGKHCAKFNLQGEIDYATNEAWYYIESSLQLTLPYERNDLYVEVYPLDISFNDPFTKIQLWIPVKQSPYDED”, the “soluble on expression in E. coli” value was “not soluble”.
As for “MAKKPSKKKVKRQVASGRAYIHASYNNTIVTITDPDGNPITWSSGGVIGYKGSRKGTPYAAQLAALDAAKKAMAYGMQSVDVIVRGTGAGREQAIRALQASGLQVKSIVDDTPVPHNGCRPKKKFRKAS”, the “soluble on expression in E. coli” value is “soluble”.
“MSQKRQTKFQNGKSKTSENSSAKREKGMVVNSKEISDAVGQSKFVLENLRHYTVHPNLAQYYKPLKATALQKFLAQNRKNTSFMLKVTQYDQDKTLLIMTNNPPPCSITQQDKESASKYFSKELLLKVMESHHQHKPTENLWLPRMPQKKKLRSKLKPIFPLILSDDPTSKREQWFRFSTDNDFKSEGKYSKVYALRTQKKMYPQLTFAPVHERDMRKDASKKSASERPISKVIREPLTLASLLEDMPTRTAPGESAFRNGRAPQWIIKKATVIG”: the “soluble on expression in E. coli” value is recorded as “soluble”.
Under “MSQTVNIVGAGLAGSEAAYQLAQRGIKVNLIEMRPVKQTPAHHTDKFAELVCSNSLRGNALTNGVGVLKEEMRRLDSLIISAADKARVPAGGALAVDRHDFSGYITETLRNHPNVTVINEEINSIPEGYTIIATGPLTTENLAKEIVDITGKDQLYFYDAAAPIIEKESIDMDKVYLKSRYDKGEAAYLNCPMTEEEFNRFYDAVLEAEVAPTNEFEKEKYFEGCMPFEVMAERGRKTLLFGPMKPVGLEDPKTGKRPFAVVQLRQDDAAGTLYNIVGFQTHLKWGAQKEVIRLIPGLENVDIVRYGVMHRNTFINSPDVLNEKYELIKEDRIQFAGQMTGVEGYVESAASGLVAGINLAHKLLDKGEVIFPRETMIGSMAYYISHAKNEKNFQPMNANFGLLPSLEKRIKDKKERYEAQANRALEYLENYKKTLLEHHHHHH” stands “soluble”.
Regarding “MAHHHHHHMALLQRVAQVMQEVAPLSLADHSWDNVGVLLESPAPNKSNAIMLTIDLTPEVMEECLEKNVEVILAYHPPLFRPVKRLTLQDPKQRIILQAASAGMSIYAPHTSLDAAEGGINDWLASLVAGDGAYTASPIQPTSSYAPNAAEATKATGMGRLVKLKEEVEFCSMVGSLKQQLGLATVRVALPDSWEPSHKVSSVALCAGSGTSVFRLLRLPVHVLLSGEMSHHDVLAATAAGQAVILCEHTNTERGFLKAVLQRTLQAKLEGTTVLVSDKDSDPLTAW”, the “soluble on expression in E. coli” value was “soluble”.
Under “MGSDKIHHHHHHMKKQNIAGFSKVDDTANPQDFVSYLDAISSLNSIQKYKQQTFTRLEIQAGDRILDVGCGIGDDVRSLAVKVGNAGEVVGIDRSETMVKEAQSRSADLGLPVAYYVGDAEKLEFPDCTFDACRSDRTFQHLLNPRQALTEIVRVTRCGGRVVVSDPDWETLVIDTGDRALTRKILNFHCDSCVNGWIGRQLPTLFQEVGLHKINVDTYTLILTDCTLADKHLGVINAAMKAQQAGLISIAEAANWITNLEAASQAGRFFCAITGFLAFGCKP” stands “not soluble”.
Under “MSLSKPLFIFEMANNHMGNVEHGVALIRAIRESCQGFDFDFGFKLQYRNLDTFIHSSFKGRDDVKYVKRFEETRLQPEQMQKLVAEMKANGFKAICTPFDEESVDLIEAHGIEIIKIASCSFTDWPLLERIARSDKPVVASTAGARREDIDKVVSFMLHRGKDLTIMHCVAEYPTPDDHLHLARIKTLRQQYAGVRIGYSTHEDPDLMEPIMLAVAQGATVFEKHVGLPTDQYGINNYSANPEQVRRWLAAAARALAMLGDGEDDAVSETEQASLRSLRRGVFATRPVAAGEALTADNVSFAFPPVEGQLTANEWSKYVRYTAKTPIAADAPVMAADLEPVNEGHHHHHH” stands “soluble”.
Under “MIFVLDVGNTNAVLGVFEEGELRQHWRMETDRHKTEDEYGMLVKQLLEHEGLSFEDVKGIIVSSVVPPIMFALERMCEKYFKIKPLVVGPGIKTGLNIKYENPREVGADRIVNAVAGIHLYGSPLIIVDFGTATTYCYINEEKHYMGGVITPGIMISAEALYSRAAKLPRIEITKPSSVVGKNTVSAMQSGILYGYVGQVEGIVKRMKEEARQEPKVIATGGLAKLISEESNVIDIVDPFLTLKGLYMLYERNANLQHEKGE” stands “not soluble”; under “MGSDKIHHHHHHMLQPFLASADTFTQQHFANRHAILLKYPQSSAVTFAAAVWENSFHANALYFDVVGDVAWLPQLLEDLRQLADHHDRLQYSSYAAQSAVITQLQAKHFRAFRRTAMSDYRKVVATPEADVRSRSQLTSAQWHDVVQMSFANYVAAHADNPVTFNHATFEQQLAEAEDTQPSFLVENQQVQAYVFWFEDEPGALTSAWLGGQQFADIRRLLQTALFQVQARYSVVNGEFDDTDIHAWTVYQQLALPDPNPLISWQLLLDATRMP”, “not soluble”.
With “MGSDKIHHHHHHMKTQQERQPGKIATKFNQEKTREGKKLKIAVVAQDSQYPSTIQRFLAEADKSYPLISLIGGVQQVAAVAEQEQPDLLMLEGQYFSSMELETLNRVTSRFPDVGVVMLCPAQPPELLIEVMRAGVREVLPTPLTRHGVIDAVERFQQRIALSRMPMHECKVLAFIPCKGGSGATFLATNIAYALAAQENKRVALFDFNLQFGDASLFVQDGPPATSIADVARQIQRLDGSFLNSSMIQVLPNFGMLAAPESPEKAAEIRSEHINPLFQVAMKHYDFVILDVGRELDAISIQALDRADLIFPVLQQTLPSIRDARRMSAAFAALNYPDEKIRLIVNRYKKNADITLDDIESTLNLKIFKVVPNDYAVVTGSVNQGIPATKLAPRSPVAKSLQEIAHELCRGAGQGNLLRKLFAF”, the “soluble on expression in E. coli” value is recorded as “not soluble”.
Under “MKKLTKGLGILLASSLVLGLAACGGGSDDKALSTEKITIGTTAGPHQQIAEEVQKLAKKDGLEIKIKTFDDYNTPNTALNDGDLDANNYQTIPFLEQQKKDKGYKLDVAFKTVAFPMGIYSNDIKDLKNLKKGDKIAVPNDPSNEYRGLKLFEDAGVIKLKDGVEEKATKKDIAENPLDLEIVELEASQIPAQLDEVAAAAINTNFAMGAGLSINKDAIYHEPTKDNPYPNVFVVRSANKDDEVVKTLEKYYHSDEVKAFIEKEFNGSVVPAFLEHHHHHH” stands “soluble”; under “MKKSLKQKIVSSLLAVSLAVSLAPIGQANADSTSEIKQTSSITKQVDASRAIEHIRFLSETIGPRPGGTKSEEWASRYVGMQLKSMGYEVEYQPFQVPDQYVGFIESPLSTKRNWQTGAAPNALISTESVTAPLIFVQGGTKLEDIPNEVNGKIVLFERGTTVADYNKQVENAVSKGAKGVLLYSLIGGRGNYGQTFNPRLTKKQSIPVFGLAYAQGNAFKEEIAKKGTTILSLKARHESNLTSLNVIAKKKPKNSTGNEKAVVVSSHYDSVVGAPGANDNASGTGLVLELARAFQNVETDKEIRFIAFGSEETGLLGSDYYVNSLSPKERDRILGVFNADMVATNYDKAKNLYAMMPNGSPNLVTDAALQAGKQLNNDLVLQGKFGSSDHVPFAEVGIPAALFIWMGVDSWNPLIYHIEKVYHTPQDNVFENISPERMKMALEVIGTGVYNTLQQSVTQTEQKAA”, “not soluble”.
Under “GPFPPPGMSLPEYWGEEHVWWDGRAAFHGEVVRPACTLAMEDAWQIIDMGETPVRDLQNGFSGPERKFSLRLRNCEFNSQGGNLFSDSRIRVTFDGVRGETPDKFNLSGQAKGINLQIADVRGNIARAGKVMPAIPLTGNEEALDYTLRIVRNGKKLEAGNYFAVLGFRVDYE” stands “soluble”.
With “MGSDKIHHHHHHMKEINLASVLVAKRREKGITQDELAAYIGVSKASVSKWETGQSYPDITFLPLLAAYFNISIDELMSYSPQMERSDIAKLYTRLAADFASRPFEDVIAECAALIKKYYSCFPLLVQLVKLYTNHFMLAGTQERQEALLNETVTLCERIQAESGDVQLAKEAVSYQALCSLALQRPQQVLDLLGEGIRPMLPEGMLIAQAYQVMGNIGKAKETLQTELYQYVMVAFQGLLNVLQMATDHFEKAEEAFLRASDLAQIFNMKQLNPNNVILLYALGARMYCANNSHAKAIELLGNYVDTCVGGFFPFELHGDAFFDLIDPWLKDCGAAAPRSEQVIKESMLRDVLMNPAFASLQDDPGYRRLVQKMERFIGR”, the “soluble on expression in E. coli” value is listed as “not soluble”.
